Test results reported in US20220298229A1 (ICHOR BIOLOGICS, published 2022).

Biological target: T1, Vesicular Stomatitis Virus Glycoprotein (VSV-G) (Vesicular Stomatitis Virus, UniProt P03522 17-511)
T1 construct: whole, on cells
Assay: flow cytometry, VSV-G-transfected 293T cells (FIG. 4C)

T1 sequence (P03522 17-511): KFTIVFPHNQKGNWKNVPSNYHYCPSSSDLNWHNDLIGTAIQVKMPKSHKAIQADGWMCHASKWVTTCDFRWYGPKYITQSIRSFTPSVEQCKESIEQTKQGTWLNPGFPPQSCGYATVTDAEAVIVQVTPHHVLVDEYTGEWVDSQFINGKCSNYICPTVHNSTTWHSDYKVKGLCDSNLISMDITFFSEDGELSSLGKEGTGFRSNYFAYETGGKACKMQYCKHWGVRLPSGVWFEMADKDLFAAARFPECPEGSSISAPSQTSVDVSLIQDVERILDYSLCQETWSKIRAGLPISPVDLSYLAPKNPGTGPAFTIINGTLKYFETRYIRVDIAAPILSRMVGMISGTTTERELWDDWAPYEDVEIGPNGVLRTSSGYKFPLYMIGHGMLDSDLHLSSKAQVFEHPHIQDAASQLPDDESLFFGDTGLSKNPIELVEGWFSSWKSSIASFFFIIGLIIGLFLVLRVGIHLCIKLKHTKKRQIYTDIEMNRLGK

B1: monoclonal antibody MIB22 (antibody, V domains shown)
VH: EVQLVQSGAELKKPGSSVKVSCKASGGTFVGYGVSWVRQVPGHGPEWMGGFSPISNTANYAERFQGRVTMIVDGSTSTAYMELRSLRSEDTAIYYCARSCDFWNAYYNNWFDPWGQGTLVTVSS
VL: AQSALTQPASVSGSPGQSITISCTGTSSDFADYNSVSWYQQHPGKAPKLLIFDVNDRPSGVSHRFSGSKSGNTASLTISGLQAEDESDYYCTSYTICNSYVFGTGTKVTVLG
notes: also called MIB22 IgG; first antibody
binding result: no binding (tested: 1 to 15 µg/ml)
